Experimental data reported in patent US20180037631A1 (Bristol-Myers Squibb, published 2018).
Changes are numbered by the printed parent chain. Read-outs that look alike come from different tables or passages of the source.

B1: E42 (designed binder)
10Fn3 domain: MGVSDVPRDLEVVAATPTSLLISWVVPNWMYQYYRITYGETGGNSPVQEFTVPGMLETATISGLKPGVDYTITVYAVTDYYNPTTYEYTYFTYPISINYRTEIDKPSQ
B2: E65 (designed binder)
10Fn3 domain: MGVSDVPRDLEVVATTPTSLLISWRPTSQVYQYYRITYGETGGNSPVQEFTVPYNVYTATISGLKPGVDYTITVYAVTDFFNYATHEYIYHTIPISINYRTEIDKPSQ
B3: E33 (designed binder)
10Fn3 domain: MGVSDVPRDLEVVAATPTSLLISWASRKEVYQYYRITYGETGGNSPVQEFTVPGWLNTATISGLKPGVDYTITVYAVTDYMHVEYAEYPISINYRTEIDKPSQ
B4: E45 (designed binder)
10Fn3 domain: MGVSDVPRDLEVVAATPTSLLISWQVPRPMYQYYRITYGEKGGNSPVQEFTVPHDLRTATISGLKPGVDYTITVYAVTDYYDPTSNLYNYNQTPISINYRTEIDKPSQ
B5: E71 (designed binder)
10Fn3 domain: MGVSDVPRDLEVVAATPTSLLISWWFGTSSYQYYRITYGETGGNSPVQEFTVPGDLKTATISGLKPGVDYTITVYAVTDYFNPVTHEYEYHTTPISINYRTEIDKPSQ
B6: E66 (designed binder)
10Fn3 domain: MGVSDVPRDLEVVAATPTSLLISWKSYGSAYQYYRITYGETGGNSPVQEFTVPGDLQTATISGLKPGVDYTITVYAITDYYNPDTHEYKYHVSPISINYRTEIDKPSQ
B7: E63 (designed binder)
10Fn3 domain: MGVSDVPRDLEVVAATPTSLLISWDTSGASYQYYRITYGETGGNSPVQEFTVPYSVYTATISGLKPGVDYTITVYAVTDYYDPDSHYYNYNMVPISINYRTEIDKPSQ
B8: E32 (designed binder)
10Fn3 domain: MGVSDVPRDLEVVAATPTSLLISWVSLVGFYQYYRITYGETGGNSPVQEFTVPGGVHTATISGLKPGVDYTITVYAVTDYKPHADGPHTYHESPISINYRTEIDKPSQ
B9: E36 (designed binder)
10Fn3 domain: B8 10Fn3 domain with V25E, L27G, V28S, G29R, F30T, P66T, S93Y
B10: E39 (designed binder)
10Fn3 domain: B8 10Fn3 domain with V25Q, S26V, L27S, V28A, G29F, F30R, G55M, H57S, H91S, S93Y
B11: E43 (designed binder)
10Fn3 domain: B8 10Fn3 domain with V25S, S26G, L27G, V28F, G29M, F30R, G55Q, H57Y
B12: E34 (designed binder)
10Fn3 domain: B8 10Fn3 domain with V25L, S26A, L27P, V28F, G29W, F30R, H57R
B13: E61 (designed binder)
10Fn3 domain: MGVSDVPRDLEVVAATPTSLLISWDASQGNYQYYRITYGETGGNSPVQEFTVPGAVKTATISGLKPGVDYTITVYAVTDFFNPATHEYIYHTTPISINYRTEIDKPSQ
B14: E73 (designed binder)
10Fn3 domain: B13 10Fn3 domain with A14V, D25T, A26K, S27L, Q28L, N30G, A55P, K57Y, A84R, I89Q
B15: E69 (designed binder)
10Fn3 domain: B13 10Fn3 domain with D25H, S27G, Q28M, G29A, N30V, A55D, K57L, A84V, I89M, T93I
B16: E41 (designed binder)
10Fn3 domain: MGVSDVPRDLEVVAATPTSLLISWTPPNSGHNYYRITYGETGGNSPVQEFTVPHDLTTATISGLKPGVDYTITVYAVTDYYNPNTYEYTYQFTPISINYRTEIDKPSQ
B17: E70 (designed binder)
10Fn3 domain: MGVSDVPRDLEVVAATPTSLLISWVSARGRYQYYRITYGETGGNSPVQEFTVPGGVRTATISGLKPGVDYTITVYAVTDYYNLETYEYHYYRTPISINYRTEIDKPSQ
B18: E59 (designed binder)
10Fn3 domain: MGVSDVPRDLEVVAATPTSLLISWRARRLQYQYYRITYGETGGNSPVQEFTVPGMVTTATISGLKPGVDYTITVYAVTDFYNPATMEYTYQRTPISINYRTEIDKPSQ
B19: E75 (designed binder)
10Fn3 domain: B18 10Fn3 domain with R25A, R27G, L29A, Q30T, G54Y, M55D, M86H, T89Y, Q91E, R92T
B20: E74 (designed binder)
10Fn3 domain: B13 10Fn3 domain with D25R, Q28G, N30L, A55S, K57N, F81Y, H86Y
B21: E35 (designed binder)
10Fn3 domain: MGVSDVPRDLEVVAATPTSLLISWTPPGHQHQYYRITYGETGGNSPVQEFTVPGQVTTATISGLKPGVDYTITVYAVTDYYNPATHYYTYYTTPISINYRTEIDKPSQ
B22: E76 (designed binder)
10Fn3 domain: MGVSDVPRDLEVVAATPTSLLISWYSQPLTYQYYRITYGETGGNSPVQEFTVPHDVNTATISGLKPGVDYTITVYAVTDFYNPETHEYTYHLTPISINYRTEIDKPSQ
B23: E68 (designed binder)
10Fn3 domain: MGVSDVPRDLEVVAATPTSLLISWKTEPGRHQYYRITYGETGGNSPVQEFTVPGGVRTATISGLKPGVDYTITVYAVTDWYNLVSHEYVYHTTPISINYRTEIDKPSQ
B24: E38 (designed binder)
10Fn3 domain: MGVSDVPRDLEVVAATPTSLLISWNARTDAYQYYRITYGETGGNSPVQEFTVPRDLETATISGLKPGVDYTITVYAVTDYKPHADGPHTYQESPISINYRTEIDKPSQ
B25: E60 (designed binder)
10Fn3 domain: MGVSDVPRDLEVVAATPTSLLISWLQPLWRYQYYRITYGETGGNSPVQEFTVPGGLDTATISGLKPGVDYTITVYAVTDYKPHVDGPHAYHEYPISINYRTEIDKPSQ
B26: E67 (designed binder)
10Fn3 domain: MGVSDVPRDLEVVAATPTSLLISWSSVMGLYQYYRITYGETGGNSPVQEFTVPYDVYTATISGLKPGVDYTITVYAVTDYYNPSTYEYKYNTTPISINYRTEIDKPSQ
B27: E72 (designed binder)
10Fn3 domain: B26 10Fn3 domain with S26A, V27T, M28R, G29T, Y57H, P83M, S84V, K89N, N91H, T92L
B28: E62 (designed binder)
10Fn3 domain: MGVSDVPRDLEVVAATPTSLLISWCLDGQLYQYYRITYGETGGNSPVQEFTVPGSIVTATISGLKPGVDYTITVYAVTDWYNLATHEYNYRVTPISINYRTEIDKPSQ
B29: E40 (designed binder)
10Fn3 domain: MGVSDVPRDLEVVAATPTSLLISWVLGRRVYQYYRITYGETGGNSPVQEFTVPGAVYTATISGLKPGVDYTITVYAVTDYFNPATHEYQYELTPISINYRTEIDKPSQ
B30: E64 (designed binder)
10Fn3 domain: B29 10Fn3 domain with V25D, L26S, R28N, R29G, V30T, G54Y, A55R, F81Y, Q89T, T93R
B31: E37 (designed binder)
10Fn3 domain: MGVSDVPRDLEVVAATPTSLLISWERTSTHYQYYRITYGETGGNSPVQEFTVPGRVYTATISGLKPGVDYTITVYAVTDYYNPATHEYKYHQTPISINYRTEIDKPSQ
B32: E44 (designed binder)
10Fn3 domain: MGVSDVPRDLEVVAATPTSLLISWDSEGPSYQYYRITYGETGGNSPVQEFTVPYAVYTATISGLKPGVDYTITVYAVTDYYNPRTHELFFQQYPISINYRTEIDKPSQ

What was measured:
Assay in all cases: cell-based or functional assay
[1] = target: T1, EGFR on the surface of human tumour cells (A431, H292) (human, UniProt P00533 25-1210)
[2] = target: T1, EGFR on the surface of human tumour …; remark: listed apart in the source
[3] = target: T1, EGFR on the surface of human tumour …; remark: listed apart in the source

% inhibition of EGFR phosphorylation at 100 nM binder, cell-based assay [1]	% inhibition of EGFR phosphorylation at 100 nM binder, cell-based assay [2]	also measured	Binder
77.3%			B1
	80.7%		B2
75.8%			B3
80.4%			B4
	80.4%		B5
	75%		B6
	76.2%		B7
86%			B8
81.3%			B9
76.7%			B10
75%			B11
80.4%			B12
	79.8%		B13
		% inhibition of EGFR phosphorylation at 100 nM binder, cell-based assay [3]: 78.8%	B14
	85.1%		B15
75.2%			B16

% inhibition of EGFR phosphorylation at 100 nM binder, cell-based assay [1]	% inhibition of EGFR phosphorylation at 100 nM binder, cell-based assay [2]	also measured	Binder
	76.8%		B17
	76.3%		B18
		% inhibition of EGFR phosphorylation at 100 nM binder, cell-based assay [3]: 76.5%	B19
		% inhibition of EGFR phosphorylation at 100 nM binder, cell-based assay [3]: 80.9%	B20
90.2%			B21
		% inhibition of EGFR phosphorylation at 100 nM binder, cell-based assay [3]: 79%	B22
	78.5%		B23
89.8%			B24
	100%		B25
	75.3%		B26
	82.8%		B27
	78.9%		B28
89.6%			B29
	78.2%		B30
80.8%			B31
83.3%			B32
